Test results reported in the supplement of paper PMC11780869.

These sequences were tested on Bacillus subtilis (assay: cleaved RNA product abundance (RNA/gDNA barcode ratio) relative to median wild-type variant (ratio to wild type); higher = more accumulation of the downstream cleavage product). Conditions: experiment (reporter, strain, medium): exp 8a: truncated aprE reporter, strain BJT201 with 2% xylose (RNase J1 expressed); cleavage site: glnRA (positions -5 to +31 mutated).
How it was run: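 Truncated aprE or tetM reporter mRNAs with barcoded RNase Y cleavage-site windows, mutagenized from oligos at a 9% error rate, sat in the B. subtilis chromosome. Cells grew in LB at 37°C from OD600 0.0003 to 0.3. Gel-selected cleaved RNA was reverse transcribed and its barcodes sequenced with those from genomic DNA, collapsing by UMI. Cleaved product abundance equals the RNA:gDNA barcode ratio per construct over the median construct with the unmutated site.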

Point of comparison: “CGACATGTCCCGCTTCTTTCATTAATCCGTTAGCAACTGTTTTTCTATATACATTTACGTTTTAAGAGGAGGAAT”, “cleaved RNA product abundance” value 0.305. Against it:
- CGACATGTCCCGCTTCTTTCATTAATCCGTTAGCAACTGTTTTGTTATATACATTTACCCTTTAAGAGGAGGAAT — higher, 0.388
- CGACATGTCCCGCTTCTTTCATTAATCCGTTAGCAACTGTTTTGTTATATACATTTACCTTTTAAGAGGAGGAAT — higher, 0.453
- CGACATGTCCCGCTTCTTTCATTAATCCGTTAGCAACTGTTTTGTTATATACATTTACGTTTTAAGAGGAGGAAT — higher, 0.39
- CGACATGTCCCGCTTCTTTCATTAATCCGTTAGCAACTGTTTTGTTATATACATTTAGCTTTTAAGAGGAGGAAT — lower, 0.257
- CGACATGTCCCGCTTCTTTCATTAATCCGTTAGCAACTGTTTTGTTATATACATTTATCTTTTAAGAGGAGGAAT — higher, 0.458
- CGACATGTCCCGCTTCTTTCATTAATCCGTTAGCAACTGTTTTGTTATATATATTTACCTTTTAAGAGGAGGAAT — lower, 0.298
- CGACATGTCCCGCTTCTTTCATTAATCCGTTAGCAACTGTTTTTATATATACATTTACCTTTTAAGAGGAGGAAT — higher, 0.669
- CGACATGTCCCGCTTCTTTCATTAATCCGTTAGCAACTGTTTTTCAATATACATTTACCTTTTAAGAGGAGGAAT — higher, 0.551
- CGACATGTCCCGCTTCTTTCATTAATCCGTTAGCAACTGTTTTTCTAGATACATTTACCTTTTAAGAGGAGGAAT — higher, 0.378
- CGACATGTCCCGCTTCTTTCATTAATCCGTTAGCAACTGTTTTTCTATAAACATTTACCTTTTAAGAGGAGGAAT — higher, 0.459
- CGACATGTCCCGCTTCTTTCATTAATCCGTTAGCAACTGTTTTTCTATATACAATTACCTTTTAAGAGGAGGAAT — higher, 0.846
- CGACATGTCCCGCTTCTTTCATTAATCCGTTAGCAACTGTTTTTCTATATACACTTACCTTTTAAGAGGAGGAAT — higher, 0.721
- CGACATGTCCCGCTTCTTTCATTAATCCGTTAGCAACTGTTTTTCTATATACATATACCTTTTAAGAGGAGGAAT — higher, 0.656
- CGACATGTCCCGCTTCTTTCATTAATCCGTTAGCAACTGTTTTTCTATATACATTTAACTTTTAAGAGGAGGAAT — higher, 0.675
- CGACATGTCCCGCTTCTTTCATTAATCCGTTAGCAACTGTTTTTCTATATACATTTACATTTTAAGAGGAGGAAT — higher, 0.576
- CGACATGTCCCGCTTCTTTCATTAATCCGTTAGCAACTGTTTTTCTATATACATTTACCTTTTAAGAGGAGGAAT — higher, 0.576
- CGACATGTCCCGCTTCTTTCATTAATCCGTTAGCAACTGTTTTTCTATATACATTTTACCTTTTAAGAGGAGGAA — higher, 0.435
- CGACATGTCCCGCTTCTTTCATTAATCCGTTAGCAACTGTTTTTCTATATAGATTTACCTTTTAAGAGGAGGAAT — higher, 0.925
- CGACATGTCCCGCTTCTTTCATTAATCCGTTAGCAACTGTTTTTCTATATATATTTACCTTTTAAGAGGAGGAAT — higher, 0.668
- CGACATGTCCCGCTTCTTTCATTAATCCGTTAGCAACTGTTTTTCTATATTCATTTACCTTTTAAGAGGAGGAAT — lower, 0.189
- CGACATGTCCCGCTTCTTTCATTAATCCGTTAGCAACTGTTTTTCTCTATACATTTACCTTTTAAGAGGAGGAAT — higher, 0.337
- CGACATGTCCCGCTTCTTTCATTAATCCGTTAGCAACTGTTTTTCTGTATACATTTACCTTTTAAGAGGAGGAAT — higher, 0.357
- CGACATGTCCCGCTTCTTTCATTAATCCGTTAGCAACTGTTTTTGCTATATACATTTACCTTTTAAGAGGAGGAA — higher, 0.946
- CGACATGTCCCGCTTCTTTCATTAATCCGTTAGCAACTGTTTTTGTATATACATTTACCTTTTAAGAGGAGGAAT — higher, 0.494
- CGACATGTCCCGCTTCTTTCATTAATCCGTTAGCAACTGTTTTTTTATATACATTTACCTTTTAAGAGGAGGAAT — higher, 0.718
- CGACATGTCCCGCTTCTTTCATTAATCCGTTAGCAACTTATTTGCTATATACATTTACCTTTTAAGAGGAGGAAT — higher, 1.85
- CGACATGTCCCGCTTCTTTCATTAATCCGTTAGCAACTTGTTTTGCTATATACATTTACCTTTTAAGAGGAGGAA — higher, 1.01
- CGACATGTCCCGCTTCTTTCATTAATCCGTTAGCAACTTTATTGCTATATACATTTACCTTTTAAGAGGAGGAAT — higher, 0.922
- CGACATGTCCCGCTTCTTTCATTAATCCGTTAGCAACTTTTGTGCTATATACATTTACCTTTTAAGAGGAGGAAT — higher, 1.05
- CGACATGTCCCGCTTCTTTCATTAATCCGTTAGCAACTTTTTAGCTATATACATTTACCTTTTAAGAGGAGGAAT — higher, 0.565
- CGACATGTCCCGCTTCTTTCATTAATCCGTTAGCAACTTTTTCGCTATATACATTTACCTTTTAAGAGGAGGAAT — higher, 0.662
- CGACATGTCCCGCTTCTTTCATTAATCCGTTAGCAACTTTTTGGCTATATACATTTACCTTTTAAGAGGAGGAAT — higher, 0.563
- CGACATGTCCCGCTTCTTTCATTAATCCGTTAGCAACTTTTTTACTATATACATTTACCTTTTAAGAGGAGGAAT — higher, 0.744
- CGACATGTCCCGCTTCTTTCATTAATCCGTTAGCAACTTTTTTCCTATATACATTTACCTTTTAAGAGGAGGAAT — higher, 0.697
- CGACATGTCCCGCTTCTTTCATTAATCCGTTAGCAACTTTTTTGCAATATACATTTACCTTTTAAGAGGAGGAAT — higher, 0.494
- CGACATGTCCCGCTTCTTTCATTAATCCGTTAGCAACTTTTTTGCTATAAACATTTACCTTTTAAGAGGAGGAAT — higher, 1.58
- CGACATGTCCCGCTTCTTTCATTAATCCGTTAGCAACTTTTTTGCTATATACAATTACCTTTTAAGAGGAGGAAT — higher, 1.63
- CGACATGTCCCGCTTCTTTCATTAATCCGTTAGCAACTTTTTTGCTATATACATATACCTTTTAAGAGGAGGAAT — higher, 2.12
- CGACATGTCCCGCTTCTTTCATTAATCCGTTAGCAACTTTTTTGCTATATACATTTAACTTTTAAGAGGAGGAAT — higher, 1.81
- CGACATGTCCCGCTTCTTTCATTAATCCGTTAGCAACTTTTTTGCTATATACATTTACATTTTAAGAGGAGGAAT — higher, 1.72
- CGACATGTCCCGCTTCTTTCATTAATCCGTTAGCAACTTTTTTGCTATATACATTTACCATTTAAGAGGAGGAAT — higher, 1.97
- CGACATGTCCCGCTTCTTTCATTAATCCGTTAGCAACTTTTTTGCTATATACATTTACCGTTTAAGAGGAGGAAT — higher, 1.51
- CGACATGTCCCGCTTCTTTCATTAATCCGTTAGCAACTTTTTTGCTATATACATTTACCTTTTAAGAGGAGGAAT — higher, 1.24
- CGACATGTCCCGCTTCTTTCATTAATCCGTTAGCAACTTTTTTGCTATATACATTTACTTTTTAAGAGGAGGAAT — higher, 1.37
- CGACATGTCCCGCTTCTTTCATTAATCCGTTAGCAACTTTTTTGCTATATACATTTTCCTTTTAAGAGGAGGAAT — higher, 0.343
- CGACATGTCCCGCTTCTTTCATTAATCCGTTAGCAACTTTTTTGCTATATATATTTACCTTTTAAGAGGAGGAAT — higher, 0.911
- CGACATGTCCCGCTTCTTTCATTAATCCGTTAGCAACTTTTTTGCTATATTCATTTACCTTTTAAGAGGAGGAAT — higher, 0.521
- CGACATGTCCCGCTTCTTTCATTAATCCGTTAGCAACTTTTTTGTTATATACATTTACCTTTTAAGAGGAGGAAT — higher, 0.748
- CGACATGTCCCGCTTCTTTCATTAATCCGTTAGCAACTTTTTTTCTATATACATTTACCTTTTAAGAGGAGGAAT — higher, 0.658
- CGACATGTCCCGCTTCTTTCATTAATCCGTTAGCAAGCGTTTTGCTATATACATTTACCTTTTAAGAGGAGGAAT — higher, 0.684
- CGACATGTCCCGCTTCTTTCATTAATCCGTTAGCAAGTGATTTGCTATATACATTTACCTTTTAAGAGGAGGAAT — higher, 1.25
- CGACATGTCCCGCTTCTTTCATTAATCCGTTAGCAAGTGTTATGCTATATACATTTACCTTTTAAGAGGAGGAAT — lower, 0.19
- CGACATGTCCCGCTTCTTTCATTAATCCGTTAGCAAGTGTTTTACTATATACATTTACCTTTTAAGAGGAGGAAT — higher, 0.824
- CGACATGTCCCGCTTCTTTCATTAATCCGTTAGCAAGTGTTTTGCTAAATACATTTACCTTTTAAGAGGAGGAAT — higher, 0.596
- CGACATGTCCCGCTTCTTTCATTAATCCGTTAGCAAGTGTTTTGCTATAAACATTTACCTTTTAAGAGGAGGAAT — higher, 0.659
- CGACATGTCCCGCTTCTTTCATTAATCCGTTAGCAAGTGTTTTGCTATATAAATTTACCTTTTAAGAGGAGGAAT — higher, 0.803
- CGACATGTCCCGCTTCTTTCATTAATCCGTTAGCAAGTGTTTTGCTATATACATCTACCTTTTAAGAGGAGGAAT — higher, 0.494
- CGACATGTCCCGCTTCTTTCATTAATCCGTTAGCAAGTGTTTTGCTATATACATTTACCTTTTAAGAGGAGGAAT — higher, 0.995
- CGACATGTCCCGCTTCTTTCATTAATCCGTTAGCAAGTGTTTTGCTATATACATTTACTTTTTAAGAGGAGGAAT — higher, 1.39
- CGACATGTCCCGCTTCTTTCATTAATCCGTTAGCAAGTGTTTTGCTATATACATTTAGCTTTTAAGAGGAGGAAT — higher, 1.43
- CGACATGTCCCGCTTCTTTCATTAATCCGTTAGCAAGTGTTTTGCTATATCCATTTACCTTTTAAGAGGAGGAAT — lower, 0.273
- CGACATGTCCCGCTTCTTTCATTAATCCGTTAGCAAGTGTTTTGCTATATTCATTTACCTTTTAAGAGGAGGAAT — higher, 0.488
- CGACATGTCCCGCTTCTTTCATTAATCCGTTAGCAAGTGTTTTGCTATTTACATTTACCTTTTAAGAGGAGGAAT — lower, 0.163
- CGACATGTCCCGCTTCTTTCATTAATCCGTTAGCAAGTGTTTTGCTTTATACATTTACCTTTTAAGAGGAGGAAT — higher, 0.474
- CGACATGTCCCGCTTCTTTCATTAATCCGTTAGCAAGTGTTTTGTTATATACATTTACCTTTTAAGAGGAGGAAT — lower, 0.21
